Test results taken from publication PMC13486833 (2026).

What was measured:
RAGE-Fc chimera protein [1] = target: T1, RAGE-Fc chimera protein (UniProt Q15109 23-342); experiment: BLI; kinetics
RAGE-Fc chimera protein [2] = target: T1, RAGE-Fc chimera protein; experiment: BLI
RAGE-Fc chimera protein [3] = target: T1, RAGE-Fc chimera protein; experiment: ELISA
RAGE-Fc chimera protein [4] = target: T1, RAGE-Fc chimera protein; experiment: BLI; saturation

T1 sequence (Q15109 23-342, change not shown): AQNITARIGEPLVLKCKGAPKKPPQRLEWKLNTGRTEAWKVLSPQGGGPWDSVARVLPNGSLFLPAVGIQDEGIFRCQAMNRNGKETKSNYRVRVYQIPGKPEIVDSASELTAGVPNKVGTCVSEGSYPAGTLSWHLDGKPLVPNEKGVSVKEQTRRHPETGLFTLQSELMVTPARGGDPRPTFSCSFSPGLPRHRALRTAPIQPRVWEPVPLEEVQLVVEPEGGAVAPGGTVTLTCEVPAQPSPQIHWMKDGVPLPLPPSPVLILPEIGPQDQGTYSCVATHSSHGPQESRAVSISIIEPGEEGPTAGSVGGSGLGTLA

B1: dBB12L (FR-HMGB1 89–174::89–174) (other)
chain: KDPNAPKRPPSAFFLFCSEYRPKIKGEHPGLSIGDVAKKLGEMWNNTAADDKQPYEKKAAKLKEKYEKDIAAYRAKGKPDAAKKGVKDPNAPKRPPSAFFLFCSEYRPKIKGEHPGLSIGDVAKKLGEMWNNTAADDKQPYEKKAAKLKEKYEKDIAAYRAKGKPDAAKKGV
modifications: fully reduced Cys105 (printed numbering) in both copies; printed n = entry n+1 (C22/C44/C105 = C23/C45/C106 in P09429); direct tandem fusion, with native flanks acting as the linker
- Kd (RAGE-Fc chimera protein [1]): 1.3 µM

B2: FR-HMGB1 1–214 (natural protein)
chain: MGKGDPKKPRGKMSSYAFFVQTCREEHKKKHPDASVNFSEFSKKCSERWKTMSAKEKGKFEDMAKADKARYEREMKTYIPPKGETKKKFKDPNAPKRPPSAFFLFCSEYRPKIKGEHPGLSIGDVAKKLGEMWNNTAADDKQPYEKKAAKLKEKYEKDIAAYRAKGKPDAAKKGVVKAEKSKKKKEEEEDEEDEEDEEEEEDEEDEDEEEDDDDE
- koff (RAGE-Fc chimera protein [2]): 0.041 s⁻¹
- Kd (RAGE-Fc chimera protein [3]): 0.0861 µM
- Kd (RAGE-Fc chimera protein [1]): 0.8 µM
- Kd (RAGE-Fc chimera protein [4]): 2.3 µM

B3: DS-HMGB1 1–214 (natural protein)
chain: MGKGDPKKPRGKMSSYAFFVQTCREEHKKKHPDASVNFSEFSKKCSERWKTMSAKEKGKFEDMAKADKARYEREMKTYIPPKGETKKKFKDPNAPKRPPSAFFLFCSEYRPKIKGEHPGLSIGDVAKKLGEMWNNTAADDKQPYEKKAAKLKEKYEKDIAAYRAKGKPDAAKKGVVKAEKSKKKKEEEEDEEDEEDEEEEEDEEDEDEEEDDDDE
modifications: disulfide bond between C22 and C44
- koff (RAGE-Fc chimera protein [2]): 0.043 s⁻¹
- Kd (RAGE-Fc chimera protein [3]): 0.00435 µM
- Kd (RAGE-Fc chimera protein [1]): 0.2 µM
- Kd (RAGE-Fc chimera protein [4]): 1.3 µM

B4: DS Box A 1-88 (protein)
chain: GKGDPKKPRGKMSSYAFFVQTCREEHKKKHPDASVNFSEFSKKCSERWKTMSAKEKGKFEDMAKADKARYEREMKTYIPPKGETKKKF
modifications: intramolecular disulfide Cys22-Cys44 in paper numbering (UniProt Cys23-Cys45); paper numbering omits the initiator Met (offset +1: paper Pro8-Ile78 = UniProt 9-79); any initiator Met or tag remnant left out
- koff (RAGE-Fc chimera protein [2]): 0.439 s⁻¹
- Kd (RAGE-Fc chimera protein [1]): 15.6 µM
- Kd (RAGE-Fc chimera protein [4]): 53.4 µM

B5: 3S-HMGB1 1–214 (natural protein)
chain: GKGDPKKPRGKMSSYAFFVQTSREEHKKKHPDASVNFSEFSKKSSERWKTMSAKEKGKFEDMAKADKARYEREMKTYIPPKGETKKKFKDPNAPKRPPSAFFLFSSEYRPKIKGEHPGLSIGDVAKKLGEMWNNTAADDKQPYEKKAAKLKEKYEKDIAAYRAKGKPDAAKKGVVKAEKSKKKKEEEEDEEDEEDEEEEEDEEDEDEEEDDDDE
- koff (RAGE-Fc chimera protein [2]): 0.015 s⁻¹
- Kd (RAGE-Fc chimera protein [3]): 0.00722 µM
- Kd (RAGE-Fc chimera protein [1]): 0.9 µM
- Kd (RAGE-Fc chimera protein [4]): 3 µM

B6: DS-HMGB1 1–184 (domain or fragment)
chain: GKGDPKKPRGKMSSYAFFVQTCREEHKKKHPDASVNFSEFSKKCSERWKTMSAKEKGKFEDMAKADKARYEREMKTYIPPKGETKKKFKDPNAPKRPPSAFFLFCSEYRPKIKGEHPGLSIGDVAKKLGEMWNNTAADDKQPYEKKAAKLKEKYEKDIAAYRAKGKPDAAKKGVVKAEKSKKKK
modifications: disulfide bond between C22 and C44
- koff (RAGE-Fc chimera protein [2]): 0.067 s⁻¹
- Kd (RAGE-Fc chimera protein [3]): 0.0339 µM
- Kd (RAGE-Fc chimera protein [1]): 0.2 µM
- Kd (RAGE-Fc chimera protein [4]): 0.5 µM

B7: DS-HMGB1 1–164 (domain or fragment)
chain: GKGDPKKPRGKMSSYAFFVQTCREEHKKKHPDASVNFSEFSKKCSERWKTMSAKEKGKFEDMAKADKARYEREMKTYIPPKGETKKKFKDPNAPKRPPSAFFLFCSEYRPKIKGEHPGLSIGDVAKKLGEMWNNTAADDKQPYEKKAAKLKEKYEKDIAAYRAK
modifications: disulfide bond between C22 and C44
- koff (RAGE-Fc chimera protein [2]): 0.152 s⁻¹
- Kd (RAGE-Fc chimera protein [1]): 0.9 µM
- Kd (RAGE-Fc chimera protein [4]): 3.1 µM
